Holding throughout (assay): SIMPL ELISA, bait-IN/prey-CIC
A general note: An ELISA detects its analyte on a solid surface through an enzyme-linked reagent.

Experiment [1] addresses T1, FRS2 (prey, CIC format) (human) (UniProt Q8WU20).
T1 sequence (looked up): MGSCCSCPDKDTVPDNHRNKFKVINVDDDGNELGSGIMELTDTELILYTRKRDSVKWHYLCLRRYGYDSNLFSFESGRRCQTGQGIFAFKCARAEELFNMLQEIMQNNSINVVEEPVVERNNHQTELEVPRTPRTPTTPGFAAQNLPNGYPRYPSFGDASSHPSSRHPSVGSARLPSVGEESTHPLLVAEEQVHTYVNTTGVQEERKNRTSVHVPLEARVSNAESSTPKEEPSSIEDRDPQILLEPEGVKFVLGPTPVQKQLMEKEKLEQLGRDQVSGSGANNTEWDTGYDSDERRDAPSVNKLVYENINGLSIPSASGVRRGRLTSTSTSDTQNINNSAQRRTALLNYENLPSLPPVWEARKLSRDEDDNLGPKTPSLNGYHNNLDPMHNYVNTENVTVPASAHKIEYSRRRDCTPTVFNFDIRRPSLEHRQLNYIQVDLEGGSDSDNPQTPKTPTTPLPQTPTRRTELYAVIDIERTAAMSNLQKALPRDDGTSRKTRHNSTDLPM

In experiment [2] the target is T2, MCM5 (prey, CIC format) (human) (UniProt P33992).
T2 sequence (looked up): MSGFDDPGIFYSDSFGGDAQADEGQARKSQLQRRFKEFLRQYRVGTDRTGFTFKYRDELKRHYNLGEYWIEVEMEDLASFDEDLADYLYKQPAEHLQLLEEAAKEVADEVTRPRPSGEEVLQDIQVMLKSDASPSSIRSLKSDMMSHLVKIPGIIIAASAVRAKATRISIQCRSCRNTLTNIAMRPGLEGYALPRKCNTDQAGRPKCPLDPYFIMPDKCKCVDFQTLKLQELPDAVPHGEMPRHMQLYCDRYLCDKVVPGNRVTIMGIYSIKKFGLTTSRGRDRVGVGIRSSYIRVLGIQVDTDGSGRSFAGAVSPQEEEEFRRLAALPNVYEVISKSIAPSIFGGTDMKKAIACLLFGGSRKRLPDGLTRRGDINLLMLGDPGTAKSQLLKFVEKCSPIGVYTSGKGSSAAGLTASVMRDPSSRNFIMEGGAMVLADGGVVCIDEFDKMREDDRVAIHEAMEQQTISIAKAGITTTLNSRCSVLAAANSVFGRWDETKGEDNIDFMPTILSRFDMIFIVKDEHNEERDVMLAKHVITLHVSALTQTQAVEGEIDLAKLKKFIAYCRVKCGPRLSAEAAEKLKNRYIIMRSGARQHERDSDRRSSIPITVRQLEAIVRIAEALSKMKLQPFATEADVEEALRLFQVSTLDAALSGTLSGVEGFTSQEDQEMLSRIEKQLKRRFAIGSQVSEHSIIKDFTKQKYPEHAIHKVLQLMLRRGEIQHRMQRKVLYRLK

Experiment [3] addresses T3, NTF4 (prey, CIC format) (human) (UniProt P34130).
T3 sequence (looked up): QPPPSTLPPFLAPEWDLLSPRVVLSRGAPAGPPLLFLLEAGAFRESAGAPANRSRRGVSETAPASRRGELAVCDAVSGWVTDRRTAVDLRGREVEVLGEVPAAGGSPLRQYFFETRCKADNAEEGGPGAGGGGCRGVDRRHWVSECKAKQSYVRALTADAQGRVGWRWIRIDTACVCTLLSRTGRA

In experiment [4] the target is T4, MAD1L1 (prey, CIC format) (human) (UniProt Q9Y6D9).
T4 sequence (looked up): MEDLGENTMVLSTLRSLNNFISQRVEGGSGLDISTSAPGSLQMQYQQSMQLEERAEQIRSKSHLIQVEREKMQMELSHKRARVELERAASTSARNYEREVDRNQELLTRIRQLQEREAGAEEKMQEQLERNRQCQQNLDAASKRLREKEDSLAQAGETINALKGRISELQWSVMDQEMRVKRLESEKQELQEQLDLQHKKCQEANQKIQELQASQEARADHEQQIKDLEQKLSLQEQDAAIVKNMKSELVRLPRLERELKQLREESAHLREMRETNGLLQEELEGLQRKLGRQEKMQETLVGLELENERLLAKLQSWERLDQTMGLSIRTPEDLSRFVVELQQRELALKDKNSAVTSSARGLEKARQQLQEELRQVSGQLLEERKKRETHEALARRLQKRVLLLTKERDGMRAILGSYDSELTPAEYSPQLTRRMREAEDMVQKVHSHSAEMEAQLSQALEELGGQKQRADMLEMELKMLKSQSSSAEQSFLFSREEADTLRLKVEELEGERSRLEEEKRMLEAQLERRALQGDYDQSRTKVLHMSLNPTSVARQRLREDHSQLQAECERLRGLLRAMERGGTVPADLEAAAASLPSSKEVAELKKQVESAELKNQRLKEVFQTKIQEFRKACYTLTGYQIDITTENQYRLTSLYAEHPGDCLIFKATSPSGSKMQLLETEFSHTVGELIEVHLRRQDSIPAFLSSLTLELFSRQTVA

For experiment [5], the target named is EIF3E (prey, CIC format) (human) (UniProt P60228).
EIF3E (prey, CIC format) (human), sequence (P60228 whole entry): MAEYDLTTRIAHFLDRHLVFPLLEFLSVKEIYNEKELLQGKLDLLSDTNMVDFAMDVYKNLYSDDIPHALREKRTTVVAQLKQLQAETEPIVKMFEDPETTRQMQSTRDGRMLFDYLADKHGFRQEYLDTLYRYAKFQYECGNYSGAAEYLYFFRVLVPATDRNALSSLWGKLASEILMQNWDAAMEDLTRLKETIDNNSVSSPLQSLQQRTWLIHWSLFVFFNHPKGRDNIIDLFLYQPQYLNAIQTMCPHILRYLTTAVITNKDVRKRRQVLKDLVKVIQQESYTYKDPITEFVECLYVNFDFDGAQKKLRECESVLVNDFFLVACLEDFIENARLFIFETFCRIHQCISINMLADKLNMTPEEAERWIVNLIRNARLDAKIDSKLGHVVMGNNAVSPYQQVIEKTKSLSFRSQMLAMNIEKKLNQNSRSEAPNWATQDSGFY
Experiment [6] deals with RELA (prey, CIC format) (human) (UniProt Q04206).
RELA (prey, CIC format) (human), sequence (Q04206 whole entry): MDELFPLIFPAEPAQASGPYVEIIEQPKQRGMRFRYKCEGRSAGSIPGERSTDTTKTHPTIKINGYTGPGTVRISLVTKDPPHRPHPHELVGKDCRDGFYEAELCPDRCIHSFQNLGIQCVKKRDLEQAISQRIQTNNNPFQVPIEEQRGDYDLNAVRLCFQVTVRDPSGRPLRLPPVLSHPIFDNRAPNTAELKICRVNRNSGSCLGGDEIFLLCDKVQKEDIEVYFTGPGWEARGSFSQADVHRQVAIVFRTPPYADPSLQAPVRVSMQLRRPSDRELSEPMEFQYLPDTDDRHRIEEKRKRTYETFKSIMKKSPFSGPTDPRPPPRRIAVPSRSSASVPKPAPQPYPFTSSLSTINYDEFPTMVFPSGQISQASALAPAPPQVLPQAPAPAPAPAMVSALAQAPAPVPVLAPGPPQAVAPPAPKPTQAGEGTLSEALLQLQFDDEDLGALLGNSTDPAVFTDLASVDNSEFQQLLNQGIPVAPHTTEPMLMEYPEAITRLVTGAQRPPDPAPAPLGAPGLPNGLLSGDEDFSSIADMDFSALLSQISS
Experiment [7] concerns the target HBB (prey, CIC format) (human) (UniProt P68871).
Experiment [8] addresses UBE2I (prey, CIC format) (human) (UniProt P63279).
In experiment [9] the target is T5, ORC4 (prey, CIC format) (human) (UniProt O43929).
T5 sequence (looked up): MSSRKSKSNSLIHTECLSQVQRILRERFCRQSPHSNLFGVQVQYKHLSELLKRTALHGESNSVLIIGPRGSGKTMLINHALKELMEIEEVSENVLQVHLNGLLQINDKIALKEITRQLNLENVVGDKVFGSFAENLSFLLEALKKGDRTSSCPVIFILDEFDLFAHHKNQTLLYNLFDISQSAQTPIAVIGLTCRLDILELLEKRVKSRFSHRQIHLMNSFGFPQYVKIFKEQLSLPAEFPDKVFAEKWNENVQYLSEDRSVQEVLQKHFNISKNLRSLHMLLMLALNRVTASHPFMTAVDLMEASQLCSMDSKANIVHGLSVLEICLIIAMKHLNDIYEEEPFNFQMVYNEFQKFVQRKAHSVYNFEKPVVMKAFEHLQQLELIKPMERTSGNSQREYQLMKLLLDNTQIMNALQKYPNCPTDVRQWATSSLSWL

Experiment [10] deals with T6, MCM10 (prey, CIC format) (human) (UniProt Q7L590).
T6 sequence (looked up): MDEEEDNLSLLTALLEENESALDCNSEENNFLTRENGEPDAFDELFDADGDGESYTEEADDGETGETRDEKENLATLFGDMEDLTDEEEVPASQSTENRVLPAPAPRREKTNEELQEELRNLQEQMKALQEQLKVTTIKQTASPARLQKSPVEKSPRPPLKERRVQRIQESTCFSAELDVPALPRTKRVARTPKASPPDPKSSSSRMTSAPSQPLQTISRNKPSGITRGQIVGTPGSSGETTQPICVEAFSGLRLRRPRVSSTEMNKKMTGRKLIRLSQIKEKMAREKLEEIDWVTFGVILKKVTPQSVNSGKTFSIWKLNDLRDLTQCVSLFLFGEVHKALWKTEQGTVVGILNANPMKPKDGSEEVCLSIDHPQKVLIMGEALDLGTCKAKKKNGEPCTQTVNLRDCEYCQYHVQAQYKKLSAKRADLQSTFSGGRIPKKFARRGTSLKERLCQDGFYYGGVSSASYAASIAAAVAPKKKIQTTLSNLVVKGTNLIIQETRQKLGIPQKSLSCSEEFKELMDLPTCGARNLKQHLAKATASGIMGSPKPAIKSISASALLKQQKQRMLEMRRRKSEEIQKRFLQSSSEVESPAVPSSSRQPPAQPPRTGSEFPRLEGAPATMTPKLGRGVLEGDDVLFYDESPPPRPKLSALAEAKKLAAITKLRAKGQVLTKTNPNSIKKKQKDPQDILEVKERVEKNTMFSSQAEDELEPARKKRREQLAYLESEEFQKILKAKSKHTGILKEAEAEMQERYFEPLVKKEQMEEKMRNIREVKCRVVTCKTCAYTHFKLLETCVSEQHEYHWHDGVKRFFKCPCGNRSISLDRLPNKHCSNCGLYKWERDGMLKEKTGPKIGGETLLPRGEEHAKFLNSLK

HBB (prey, CIC format) (human), sequence (P68871 whole entry): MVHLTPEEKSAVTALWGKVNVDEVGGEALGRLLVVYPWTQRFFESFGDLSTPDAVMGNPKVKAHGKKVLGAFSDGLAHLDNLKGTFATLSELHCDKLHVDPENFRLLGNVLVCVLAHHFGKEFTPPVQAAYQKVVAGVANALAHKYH
UBE2I (prey, CIC format) (human), sequence (P63279 whole entry): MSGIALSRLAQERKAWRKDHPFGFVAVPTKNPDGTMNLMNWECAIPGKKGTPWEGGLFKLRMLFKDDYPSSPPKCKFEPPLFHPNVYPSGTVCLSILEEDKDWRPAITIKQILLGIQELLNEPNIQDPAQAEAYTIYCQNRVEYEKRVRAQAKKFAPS

B1: PTPN11 (bait, IN format) (enzyme, human, UniProt Q06124 1-593, looked up)
chain: MTSRRWFHPNITGVEAENLLLTRGVDGSFLARPSKSNPGDFTLSVRRNGAVTHIKIQNTGDYYDLYGGEKFATLAELVQYYMEHHGQLKEKNGDVIELKYPLNCADPTSERWFHGHLSGKEAEKLLTEKGKHGSFLVRESQSHPGDFVLSVRTGDDKGESNDGKSKVTHVMIRCQELKYDVGGGERFDSLTDLVEHYKKNPMVETLGTVLQLKQPLNTTRINAAEIESRVRELSKLAETTDKVKQGFWEEFETLQQQECKLLYSRKEGQRQENKNKNRYKNILPFDHTRVVLHDGDPNEPVSDYINANIIMPEFETKCNNSKPKKSYIATQGCLQNTVNDFWRMVFQENSRVIVMTTKEVERGKSKCVKYWPDEYALKEYGVMRVRNVKESAAHDYTLRELKLSKVGQGNTERTVWQYHFRTWPDHGVPSDPGGVLDFLEEVHHKQESIMDAGPVVVHCSAGIGRTGTFIVIDILIDIIREKGVDCDIDVPKTIQMVRSQRSGMVQTEAQYRFIYMAVQHYIETLQRRIEEEQKSKRKGHEYTNIKYSLADQTSGDQSPLPPCTPTPPCAEMREDSARVYENVGLMQQQKSFR
B1: in experiment [1], the PLU mean worked out at 0.474.

B2: BDNF (bait, IN format) (ligand, human, UniProt P23560 19-247, looked up)
chain: APMKEANIRGQGGLAYPGVRTHGTLESVNGPKAGSRGLTSLADTFEHVIEELLDEDQKVRPNEENNKDADLYTSRVMLSSQVPLEPPLLFLLEEYKNYLDAANMSMRVRRHSDPARRGELSVCDSISEWVTAADKKTAVDMSGGTVTVLEKVPVSKGQLKQYFYETKCNPMGYTKEGCRGIDKRHWNSQCRTTQSYVRALTMDSKKRIGWRFIRIDTSCVCTLTIKRGR
For the molecule B2, the PLU mean in [2] turned out to be 0.22; in [3] it was 0.629; in [4] it was 0.19.

B3: IFIT1 (bait, IN format) (protein, human, UniProt P09914 1-478, looked up)
chain: MSTNGDDHQVKDSLEQLRCHFTWELSIDDDEMPDLENRVLDQIEFLDTKYSVGIHNLLAYVKHLKGQNEEALKSLKEAENLMQEEHDNQANVRSLVTWGNFAWMYYHMGRLAEAQTYLDKVENICKKLSNPFRYRMECPEIDCEEGWALLKCGGKNYERAKACFEKVLEVDPENPESSAGYAISAYRLDGFKLATKNHKPFSLLPLRQAVRLNPDNGYIKVLLALKLQDEGQEAEGEKYIEEALANMSSQTYVFRYAAKFYRRKGSVDKALELLKKALQETPTSVLLHHQIGLCYKAQMIQIKEATKGQPRGQNREKLDKMIRSAIFHFESAVEKKPTFEVAHLDLARMYIEAGNHRKAEENFQKLLCMKPVVEETMQDIHFHYGRFQEFQKKSDVNAIIHYLKAIKIEQASLTRDKSINSLKKLVLRKLRRKALDLESLSLLGFVYKLEGNMNEALEYYERALRLAADFENSVRQGP
Turning to B3, the figures for the PLU mean in experiment [5] and in experiment [6] were 0.676 and 0.328, respectively.

B4: ORC2 (bait, IN format) (protein, human, UniProt Q13416 1-577, looked up)
chain: MSKPELKEDKMLEVHFVGDDDVLNHILDREGGAKLKKERAQLLVNPKKIIKKPEYDLEEDDQEVLKDQNYVEIMGRDVQESLKNGSATGGGNKVYSFQNRKHSEKMAKLASELAKTPQKSVSFSLKNDPEITINVPQSSKGHSASDKVQPKNNDKSEFLSTAPRSLRKRLIVPRSHSDSESEYSASNSEDDEGVAQEHEEDTNAVIFSQKIQAQNRVVSAPVGKETPSKRMKRDKTSDLVEEYFEAHSSSKVLTSDRTLQKLKRAKLDQQTLRNLLSKVSPSFSAELKQLNQQYEKLFHKWMLQLHLGFNIVLYGLGSKRDLLERFRTTMLQDSIHVVINGFFPGISVKSVLNSITEEVLDHMGTFRSILDQLDWIVNKFKEDSSLELFLLIHNLDSQMLRGEKSQQIIGQLSSLHNIYLIASIDHLNAPLMWDHAKQSLFNWLWYETTTYSPYTEETSYENSLLVKQSGSLPLSSLTHVLRSLTPNARGIFRLLIKYQLDNQDNPSYIGLSFQDFYQQCREAFLVNSDLTLRAQLTEFRDHKLIRTKKGTDGVEYLLIPVDNGTLTDFLEKEEEEA
In the case of B4, the PLU mean in experiment [7] amounted to 0.227; in [8], 0.119; in experiment [9] it was 0.297; in [10], 0.43.

The record behind these values is US20220229068A1, “DETECTION OF PROTEIN TO PROTEIN INTERACTIONS” (THE GOVERNING COUNCIL OF THE UNIVERSITY OF TORONTO, priority 2019, published 2022).
